PMC11006869

Key:
[1] = target: ErNaR, NDQ rhodopsin (light-driven sodium pump) from Erythrobacter sp. HL-111 (Erythrobacter sp. HL-111); experiment: cryo-EM structure; single particle; 20 mM Tris pH 8.0, 200 mM NaCl, 0.05% DDM; C5 symmetry; 2.63 Å
[2] = target: ErNaR, NDQ rhodopsin (light-driven sodium pump) from Erythrobacter sp. HL-111 (Erythrobacter sp. HL-111); experiment: cryo-EM structure; single particle; 100 mM sodium acetate pH 4.3, 200 mM NaCl, 0.05% DDM; C5 symmetry; 2.50 Å
[3] = target: ErNaR, NDQ rhodopsin (light-driven sodium pump) from Erythrobacter sp. HL-111 (Erythrobacter sp. HL-111); experiment: SEC; detergent-solubilized ErNaR, pH 8.0
[4] = target: ErNaR, NDQ rhodopsin (light-driven sodium pump) from Erythrobacter sp. HL-111 (Erythrobacter sp. HL-111); experiment: SEC; detergent-solubilized ErNaR, pH 2.3

Measured: stoichiometry N

ErNaR, NDQ rhodopsin (light-driven sodium pump) from Erythrobacter sp. HL-111 (natural protein)
5: all assays above
